Measurements published in US20210130491A1 (ONCOTAG DIAGNOSTICS, published 2021).

How the values were obtained:
[1] = target: T1, AIMP3 (aminoacyl tRNA synthetase complex-interacting multifunctional protein 3) (Homo sapiens (Human), UniProt O43324 1-174, limits assumed); assay: SPR, CM5 chip coated with AIMP3, antibody flowed at 0.20 to 200 nM
T1 construct: How the AIMP3-alone protein for SPR and screening was made is not described; also called p18
T1 sequence: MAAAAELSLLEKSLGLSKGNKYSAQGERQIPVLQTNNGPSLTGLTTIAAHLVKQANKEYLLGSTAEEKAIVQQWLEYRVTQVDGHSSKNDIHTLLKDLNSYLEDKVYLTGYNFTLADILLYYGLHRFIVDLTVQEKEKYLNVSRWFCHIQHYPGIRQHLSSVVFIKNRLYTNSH
Protocol: (§1) Surface plasmon resonance (SPR) experiments were carried out using 1E8 and 8A12 antibodies and MRS+AIMP3 protein obtained in Example 1.
(§2) CM5 chips were coated with MRS+AIMP3 or AIMP3 proteins and 1E8 or 8A12 antibodies were flowed at various concentrations to measure the degree of binding reaction with the proteins. Samples or buffers were injected for 8 minutes at a flow rate of 30 μl/min and washed for 20 minutes.

[2] = target: T2, co-purified MRS-AIMP3 protein (human, UniProt P56192 1-900; O43324 1-174, limits assumed); assay: SPR, MRS+AIMP3 on CM5 chip, antibody flowed; 1E8 antibody; MRS+AIMP3 on the chip
T2 construct: MRS and AIMP3 co-expressed in E. coli BL21DE3 and co-purified
T2 sequence 1: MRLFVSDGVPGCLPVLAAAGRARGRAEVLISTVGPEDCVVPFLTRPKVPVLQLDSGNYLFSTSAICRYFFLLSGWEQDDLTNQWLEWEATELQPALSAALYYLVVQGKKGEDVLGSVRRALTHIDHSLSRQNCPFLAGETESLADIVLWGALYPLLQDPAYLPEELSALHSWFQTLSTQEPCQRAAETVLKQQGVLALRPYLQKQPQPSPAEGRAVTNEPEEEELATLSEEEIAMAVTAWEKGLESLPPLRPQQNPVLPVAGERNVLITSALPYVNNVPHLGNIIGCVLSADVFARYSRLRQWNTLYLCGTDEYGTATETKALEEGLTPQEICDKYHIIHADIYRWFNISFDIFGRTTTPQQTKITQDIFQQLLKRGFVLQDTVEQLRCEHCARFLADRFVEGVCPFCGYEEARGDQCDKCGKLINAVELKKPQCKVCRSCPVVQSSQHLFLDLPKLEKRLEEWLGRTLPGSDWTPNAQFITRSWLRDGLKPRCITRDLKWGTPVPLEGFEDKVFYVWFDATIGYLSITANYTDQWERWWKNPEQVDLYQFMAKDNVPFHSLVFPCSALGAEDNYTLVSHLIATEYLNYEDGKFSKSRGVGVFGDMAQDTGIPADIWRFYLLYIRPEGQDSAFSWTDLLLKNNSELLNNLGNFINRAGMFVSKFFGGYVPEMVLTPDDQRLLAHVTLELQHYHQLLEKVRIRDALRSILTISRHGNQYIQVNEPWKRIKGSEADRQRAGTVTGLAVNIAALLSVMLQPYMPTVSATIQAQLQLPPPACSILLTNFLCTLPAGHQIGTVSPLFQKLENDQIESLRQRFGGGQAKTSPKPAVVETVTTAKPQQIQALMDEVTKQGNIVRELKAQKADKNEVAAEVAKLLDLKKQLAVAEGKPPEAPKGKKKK
T2 sequence 2: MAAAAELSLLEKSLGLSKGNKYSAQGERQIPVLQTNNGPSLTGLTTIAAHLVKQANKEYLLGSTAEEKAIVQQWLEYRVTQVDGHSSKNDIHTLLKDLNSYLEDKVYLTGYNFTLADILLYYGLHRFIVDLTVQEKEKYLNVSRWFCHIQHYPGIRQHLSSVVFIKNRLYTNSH
Protocol: as §1, §2

[3] = target: T2, co-purified MRS-AIMP3 protein; assay: SPR, CM5 chip coated with MRS+AIMP3, antibody flowed at 0.20 to 200 nM
Protocol: as §1, §2

[4] = target: T2, co-purified MRS-AIMP3 protein; assay: SPR, MRS+AIMP3 on CM5 chip, antibody flowed; 8A12 antibody; MRS+AIMP3 on the chip
Protocol: as §1, §2

[5] = target: T2, co-purified MRS-AIMP3 protein; assay: SPR, CM5 chip coated with MRS+AIMP3, antibody flowed at 0.39 to 200 nM
Protocol: as §1, §2

B1: 1E8 antibody (1E8 IgG) (antibody, V domains shown)
VH: DVKLQESGPGLVNPSQSLSLTCTVTGYSITSDYAWNWIRQFPGNKLEWMGYISYSGRTSYKSSLKSRISITRDTSKNQFFLELNSVTTEDTATYYCARDYGNFVGYFDVWGAGTTVTVSS
VL: DIVMTQSPSSLAVSVGEKVTMSCKSSQSLLYSSNQKNYLAWYQQKPGQSPKLLIYWASTRESGVPDRFTGSGSGTEFTLTISSVKAEDLAVYYCQQYYSYPTFGGGTKLEIKA
notes: Mouse monoclonal from hybridoma clone 1E8; also called IE8; anti-MRS antibody (1E8)
[1]
  binding result: no binding (tested: 200 nM)
[2]
  Kd: 5.42 nM
[3]
  koff: 0.000526 s⁻¹
  kon: 97100 M⁻¹ s⁻¹

B2: 8A12 antibody (8A12 IgG) (antibody, V domains shown)
VH: DVKLQESGPGLVKPSQSLSLTCTVTGYSITSEYAWTWIRQFPGNKLEWMGYINYNGNTNLNPSLKSRISIIRDTSKNQFFLQLNSVTTEDTATYYCARSLWPRGWFAYWGQGTLVTVSA
VL: DIQMTQSPSSMYASLGERVTITCKASQDINSYLSWFQQKPGKSPKTLMYRANRLVDGVPSRFSGSGSGQDYSLTISSLEYEDMGIYYCLQYDEFPRTFGGGTKLEIKA
notes: Mouse monoclonal from hybridoma clone 8A12; also called 8Al2; anti-MRS antibody (8A12)
[1]
  binding result: no binding (tested: 200 nM)
[4]
  Kd: 1.56 nM
[5]
  koff: 0.000213 s⁻¹
  kon: 137000 M⁻¹ s⁻¹
